EP2450379B1

Target: HA in BPL-inactivated virus preparation of A/New Caledonia/20/99 (H1N1) (influenza A virus A/New Caledonia/20/99 (H1N1))
Experiment: ELISA, IgG 5 µg/ml

CR3014 (antibody)
OD 492nm: 0.09 OD 492nm

CR6261 (antibody)
OD 492nm: 1.46 OD 492nm
